Test results taken from publication PMC10119233.

What was measured:
[1] = biological target: N1_(10-14)Fc, Notch1 EGF-like repeats 10–14 fused to human IgG Fc (human) (UniProt P46531); assay: mass photometry; purified Notch decoys; oligomeric state
[2] = biological target: N4_(10-14)Fc, Notch4 EGF-like repeats 10–14 fused to human IgG Fc (human) (UniProt Q99466); assay: as above
[3] = biological target: Recombinant Fc-tagged hDLL4 (human) (UniProt Q9NR61); assay: SPR; Biacore T200, CM5 chip; hDLL4-Fc or hJAG1-Fc on the chip (amine coupling by the results; captured after immobilising human IgG Fc by the methods), up to 20,000 RU; N1_(10-14)Fc or N4_(10-14)Fc as analyte, multi-cycle kinetics; HBS-N (10 mM HEPES, 150 mM NaCl), 0.005% Tween 20, 1 mM CaCl2, 2 mM MgCl2, pH 7.4; 25 °C, 25 μl/min; KD = kd/ka
Sequence of Recombinant Fc-tagged hDLL4 (human) (Q9NR61 27-529): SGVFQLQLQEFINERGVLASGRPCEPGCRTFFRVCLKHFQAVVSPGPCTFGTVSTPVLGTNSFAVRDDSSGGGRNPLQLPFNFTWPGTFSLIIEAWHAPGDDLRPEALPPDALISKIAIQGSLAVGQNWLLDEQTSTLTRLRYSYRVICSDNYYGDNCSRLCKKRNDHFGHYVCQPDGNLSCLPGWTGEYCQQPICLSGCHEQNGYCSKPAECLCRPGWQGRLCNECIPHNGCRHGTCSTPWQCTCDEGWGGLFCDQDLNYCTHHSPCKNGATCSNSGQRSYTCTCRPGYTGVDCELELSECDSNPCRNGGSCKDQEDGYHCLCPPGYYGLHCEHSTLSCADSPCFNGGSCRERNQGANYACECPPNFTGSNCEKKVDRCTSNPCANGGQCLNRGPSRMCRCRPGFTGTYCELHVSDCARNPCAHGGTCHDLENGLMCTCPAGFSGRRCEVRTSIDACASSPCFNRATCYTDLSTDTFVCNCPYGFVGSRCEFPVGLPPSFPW

Substance | stoichiometry N [1] | stoichiometry N [2] | Kd [3] [nM]
N1_(10-14)Fc, Notch1 EGF-like repeats 10–14 fused to human IgG Fc (from UniProt P46531 19-2555) (Fc fusion) | 2 |  | 
N4_(10-14)Fc, Notch4 EGF-like repeats 10–14 fused to human IgG Fc (from UniProt Q99466 24-2003) (Fc fusion) |  | 2 | 963
